Measured values as given in the DeepSol protein solubility set.

Experiment: soluble on expression in E. coli; label from the status in PepcDB or PDB records

Row | Sequence | soluble on expression in E. coli
1 | MNLHVKTLSLMTWRSRFLEESFWSLEETAALAKQLPLKSPSENIFLHIVDLSDPKQIWKFVENFKQEHKLHVLINNAGCMVNKRELTEDGLEKNFAANTLGVYILTTGLIPVLEKEHDPRVITVSSGGMLVQKLNTNDLQSERTPFDGTMVYAQNKRQQVVLTERWAQGHPAIHFSSMHPGWADTPDRNEQELRKVVGEAQTASPLPRFLEIMMHEGKCQPQGHSSNDLEACWSSGGGEQNSLPDWPHQLHDLRQLTWALCSSFLLYKQGN | not soluble
2 | MNLNFSLLDEPIPLRGGTILVLEDVCVFSKIVQYCYQYEEDSELKFFDHKMKTIKESEIMLVTDILGFDVNSSTILKLIHADLESQFNEKPEVKSMIDKLVATITELIVFECLENELDLEYDEITILELIKSLGVKVETQSDTIFEKCLEILQIFKYLTKKKLLIFVNSGAFLTKDEVASLQEYISLTNLTVLFLEPRELYDFPQYILDEDYFLITKNMV | not soluble
3 | MNLPPDALHENVYAFALARDQVESYCNQCLTSMAELKKCSACRRLAYCSQECQRADWKLHKVECKAIKTHNEVANDSIRLVMRIAGKLSRNEDGEIEAYYIPGVARNFQNLEHHPSSYDADEESFVKEYFQFAIAPHPDRDLIKLIFQKVSINSFVVGNSTGNPIGVGLCIKLSAANHSCKPLTRVCYRNRTAMLVPVSSELPSTLEGACHSYIDELMPRDMRRDTLKKKYKFLCQCDGCLDEDRNARMEAWTCGICVKGWMRNKENGQCELCGWTMSKDHFELCRTAEEAGIAARSRLANDAIPLETKRNLCEKLLDLFQDTLHDHNVHRIPVLRCLYICSLAAQNITAAAKTGGTLLSIMLVYQNTTDPAILFQKYQLAQLFCAAGAKTQATKLLQEIEEPLEKIYTPDSMICRNVYCMILKARNLS | not soluble
4 | MNLQIKHAIFVLGIFLQVQGIKDTSIKIFSSEIKNIDKTPRIETIESTSTVHKVSTMKRIFDLPKLRTKRSALFPAANICPQESLRQILASLQEYYRLRVCQEVVWEAYRIFLDRIPDTEEYQDWVSLCQKETFCLFDIGKNFSNSQEHLDLLQQRIKQRSFPGRKDETASMETLEAPTEAPVVPTDVSRMSLGPFPLPSDDTDLKEILSVTLKDIQKPTTESKTEPIHVSEFSSEEKVEFSISLPNHRFKAELTNSGSPYYQELVGQSQLQLQKIFKKLPGFGEIRVLGFRPKKEEDGSSSTEIQLMAIFKRDHAEAKSPDSHLLSLDSNKIESERIHHGVIEDKQPETYLTATDLKKLIIQLLDGDLSLVEGKIPFGDEVTGTLFRPVTEPDLPKPLADVTEDATLSPELPFVEPRLEAVDREGSELPGMSSKDSSWSPPVSASISRSENLPSFTPSIFSLDAQSPPPLMTTGPTALIPKPTLPTIDYSTIRQLPLESSHWPASSSDRELITSSHDTIRDLDGMDVSDTPALSEISELSGYDSASGQFLEMTTPIPTVRFITTSSETIATKGQELVVFFSLRVANMPFSYDLFNKSSLEYQALEQRFTDLLVPYLRSNLTGFKQLEILSFRNGSVIVNSKVRFAKAVPYNLTQAVRGVLEDLRSTAAQGLNLEIESYSLDIEPADQADPCKLLDCGKFAQCVKNEWTEEAECRCRQGHESHGTLDYQTLNLCPPGKTCVAGREQATPCRPPDHSTNQAQEPGVKKLRQQNKVVKKRNSKLSAIGFEEFEDQDWEGN | soluble
5 | MNLYRLLKQREADQKPLRVALIGAGKFGSMFLSQVQRTPGMRLVAVADLAPDRARAALTRVGWPAAALNADTIHHAVKTGKVYFSDDVRSVSVDPEVEIVIDATGQAAAGIEHVLTCCEYGKHII | not soluble
6 | MNMLEKIQSQLEHLSKSERKVAEVILASPDNAIHSSIAALALEANVSEPTVNRFCRSMDTRGFPDFKLHLAQSLANGTPYVNRNVNEDDSVESYTGKIFESAMATLDHVRHSLDKSAINRAVDLLTQAKKIAFFGLGSSAAVAHDAMNKFFRFNVPVVYSDDIVLQRMSCMNCSDGDVVVLISHTGRTKNLVELAQLARENDAMVIALTSAGTPLAREATLAITLDVPEDTDIYMPMVSRLAQLTVIDVLATGFTLRRGAKFRDNLKRVKEALKESRFDKQLLNLSDDR | soluble
7 | MNNEAVFSARLSSTQHVGLCRLCNSPLVHTFVDLGMSPPCESFVAADAANDVEPFYPLHAFVCDECFLVQLQEYVAPENIFTEYAYFSSFSDSWVAHAKRYCDMVIERFALGQSSFVVELASNDGYLLQHFLTSNIPMLGIEPAVNVAKVAIGKGIPTLTEFFNEALATDMAARGQKADLIIGNNVLAQVPDINDFVAGMKTLLKPEGVITLEFPHIEKLIAENQFDTIYHEHFSYFSLLTIEKMARRHGLKVFDVEEIPTHGGSLRVFFSHEDIRFPREARVDSLLARELNAGLDKIETYTAFAEAVRQTKRNLLSFLIRLKEMRKSICAYGAPGKGNTLLNYCGIGTDFIDFAVDRNPYKHGRLTPGMHIPIRPVSEIPHMKPDYVLILPWNLKNEIVAQMKDIRNWGGKFIVPIPDISIIDPKELVQ | not soluble
8 | MNNETSGKETASAPLCSPKLPVEKVQRIAKNDPEYMDTSDDAFVATAFATEFFVQVLTHESLHRQQQQQQQQVPPLPDELTLSYDDISAAIVHSSDGHLQFLNDVIPTTKNLRLLVEENRVRYTTSVMPPNEVYSAYVVNDTAPKPNIVEIDLDNDEDDDEDVTDQE | not soluble
9 | MNNFLKHNDWARDPAFNHFWRHYDFSNQWIKQHTDASRQVQMQMVQRDNLSTEQCFSDSEEPEVIERLSRCEIYSEIENEESDIEEMSEEMKAFFAKTQEHRQKFSIRGRIEQSTDHRNASAEFIAKREKAKKDYGESATKILAMESTLAMKFESEYSQNPQLWPNIPFRF | not soluble
10 | MNNILSEEVLNVTDFTTSRQLTLWKREDLQSPQLDDVAEEVPVALVYNGISHVVMMASPKDLTHFAMGFSLSEGIIDSPREIYGMDVVPSCNGLEVQIDLSSRRFMGLKARRRALAGRTGCGVCGVEQLNDIGKPVQPLPFSQTFNLGNLDRALKHLNDFQPTGKLTGCTHAAAWVMPSGELAGGHEDVGRHVALDKLLGRRATEGEEWRQGAALVSSRASYEMVQKSAMCGVEILFAVSAATTLAVEVAERCNLTLVGFCKPGRATIYTHPQRLIADLEHHHHHH | not soluble
11 | MNNLKLDIVEQDDKAIVRVQGDIDAYNSSELKEQLRNFISTTSKKKIVLDLSSVSYMDSAGLGTLVVILKDAKINGKEFILSSLKESISRILKLTHLDKIFKITDTVEEA | soluble
12 | MNNLMPAELAPQINAHFNGKFEVELKYRLADREAFWARLSAKSPEVMLEDNLEHDCYFDSPSASLAAQHKSLCIREMQPSGIRLWIVKGPEKDRCEAVNITDANKAKSMLRTLGYQCVLEIKKRRSVYFLGQFHLTLDRLEGLGDFAELAIMTDDEAMLPVYEAQLVALAAELGLNESQREFLSYRQLQQALQQLEHHHHHH | not soluble
13 | MNNNDIIRRLRYTFDFNDDKMIQLFALADQQVTRAEISNWMKKDDDPDFKELYDKELAVFLNGFIIDKRGKKDGQTPVAEKSLNNNIIFRKLKIALNLQDDDILDILELADMRFGKHELSALFRNPDQSQFRPCKDQVLRNFIHGLQLKYRKE | not soluble
14 | MNNPKPCEWKSNELSRGYIADYKAFNFVDGEGVRCSLYVSGCPFHCEGCYNKAAQSFKYGKPYTKELEDDILKDIGHESVQGLTLLGGEPFLNTATCLSVVKRIRATYGKTKDIWSWTGYTWDEMMQETTDKLELLSLIDVLVDGRFEQKLFDPNLAFRGSSNQRIIDVQKSLAADEVVLYELLEHHHHHH | soluble
15 | MNNRIIYVVSDSVGETAELVVKAALSQFNGSADDTHVRRIPYVEDIGTINEVISLAKADGGIICFTLVVPEIREYLIAEAEKANVLYYDIIGPLIDKMETAYGLTAKYEPGRVRQLDEDYFKKVEAIEFAVKYDDGRDPRGILKADIVLIGVSRTSKTPLSQYLAHKRLKVANVPIVPEVDPPEELFNVDPKKCIGLKISPDKLNHIRKERLKSLGLNDKAIYANINRIKEELEYFEKIVDRIGCQVVDVSNKAVEETANIIHHLKTKNIAAALEHHHHHH | not soluble
16 | MNNSRLFRLSRIVIALTAASGMMVNTANAKEEAKAATQYTQQVNQNYAKSLPFSDRQDFDDAQRGFIAPLLDEGILRDANGKVYYRADDYKFDINAAAPETVNPSLWRQSQINGISGLFKVTDKMYQVRGQDISNITFVEGEKGIIVIDPLVTPPAAKAALDLYFQHRPQKPIVAVIYTHSHTDHYGGVKGIISEADVKSGKVQVIAPAGFMDEAISENVLAGNIMSRRALYSYGLLLPHNAQGNVGNGLGVTLATGDPSIIAPTKTIVRTGEKMIIDGLEFDFLMTPGSEAPAEMHFYIPALKALCTAENATHTLHNFYTLRGAKTRDTSKWTEYLNETLDMWGNDAEVLFMPHTWPVWGNKHINDYIGKYRDTIKYIHDQTLHLANQGYTMNEIGDMIKLPPALANNWASRGYYGSVSHNARAVYNFYLGYYDGNPANLHPYGQVEMGKRYVQALGGSARVINLAQEANKQGDYRWSAELLKQVIAANPGDQVAKNLQANNFEQLGYQAESATWRGFYLTGAKELREGVHKFSHGTTGSPDTIRGMSVEMLFDFMAVRLDSAKAAGKNISLNFNMSNGDNLNLTLNDSVLNYRKTLQPQADASFYISREDLHAVLTGQAKMADLVKAKKAKIIGNGAKLEEIIACLDNFDLWVNIVTPN | soluble
17 | MNNVTFEQLQETLYHEKLANGLDVYILPKTGFNKTYATFTTKYGSIDSEFIPLNQKEALHVPDGIAHFLEHKMFEDEEGDVFQLFSKQGASCNAFTSFTRTAYLFSSTTNVKKNVETLLDFVQHPYFTEESVEKEKGIIGQEITMYDDNPDWRNYFGVIENMYEHHPVKIDIAGTIPSISKITKDLLYTCYETFYHPSNMLLFIVGPVDVNEMMTLVKENQGKKEFKPAGDIQRFFPAEPEKVAKPHSVISMSVQTPKCLVGYKEKQPVRQGKDLLVRELGINVLLELMFGQGSKQYEQLDDEGLINDTFSFDHTSEYGFGFTIMGGDTKSPNRLAERIEEMVEAFKEQPLDEAAVKRVIKKKIGGFLRSLNSPEFIANQFTRYEFNKMNLFDVVPTLESLTVEKLTDILHDHFQKERFTVCQVKPEGYEEG | not soluble
18 | MNNYLRKLVEGQHLTEEEMYKAGLLLLNENILESEIAAFLVLLKAKGETAEEIYGLVRALREKALPFSNHIQGAMDNCGTGGDGAQTFNISTTSAFVLAGAGVKVAKHGNRAVSSKTGSADLLEELGVNISSTPNEIDYLLEHVGIAFLFAPAMHPALKRIMKIRKELNVPTIFNLIGPLTNPVNLETQFVGIYKRDMLLPVAQVLQKLGRKQALVVNGSGFLDEASLQGENHVVILKDNEIVETSIEPEKYGFSIVKNEEIRGGNSKENAKITLGVLSGEKSVYRDTVLFNAGLALFANGKAKTIEEGITLAAHSIDSGKALAKLNLLIAASNEELERVN | not soluble
19 | MNPEVTVLMSVYNDKNYLSESIESILNQTFENFEFLIINDASTDGSGELLEEYSKKDKRIRLIHNKNNRGLSYSLAEGVSLAKAPWIARMDADDVSFKDRLAVQMDHVKAHSELDILGSYVIDIDDKGNELEIRKVPTTHKEIANLIWTCPFIHPTVLFKKDSIIKAGSYDRNLRRRQDYDLWFRCLEAKLKFENIDKPLLYYRSTDDYYKKNNFKVQVQQAKMGFAGARRVKAKPIAYIGITVAFIKGILPYHIRKPLSQLLKKVDPRRALEHHHHHH | soluble
20 | MNPILTAAKQLLHKEEKILSTLKCSLTGYMITHKVPYPGMLLATNQRLLFFSQYKNTFIAEFDYEKILSIETKRRIFDKKIIFYYEDEYITLGYITSSNVEAFIDLLQRNSKTSTGL | not soluble
